Experiment [1] addresses T1, IL-18/IL-18BP complex (human, UniProt O95998 31-194, biotinylated in the first ELISA setup, unbiotinylated in the second).
T1 construct: also called biotinylated IL-18/IL18-BP complex; not shown: human IgG1 Fc tag
T1 sequence 1: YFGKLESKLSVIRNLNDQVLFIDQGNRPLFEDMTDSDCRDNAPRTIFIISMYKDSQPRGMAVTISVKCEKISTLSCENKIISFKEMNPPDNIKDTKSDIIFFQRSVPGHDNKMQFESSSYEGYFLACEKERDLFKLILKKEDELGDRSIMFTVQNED
T1 sequence 2: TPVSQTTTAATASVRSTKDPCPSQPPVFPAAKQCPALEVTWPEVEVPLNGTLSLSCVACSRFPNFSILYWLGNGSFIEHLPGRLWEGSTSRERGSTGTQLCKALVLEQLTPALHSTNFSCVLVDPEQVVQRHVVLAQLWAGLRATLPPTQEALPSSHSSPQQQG
As to the kind of experiment: ELISA, first set-up: antibody titrated and incubated with the biotinylated human IL-18/rhIL-18BP-Fc complex, captured on NeutrAvidin plate, AP-labelled anti-human F(ab)2, AttoPhos fluorescence [A].

Experiment [2] concerns the target T2, Recombinant human IL-18 (human, UniProt Q14116 37-193).
T2 sequence: T1 sequence 1
As to the kind of experiment: cell-based or functional assay.

In experiment [3] the target is T3, Native human IL-18 (human, UniProt Q14116 37-193).
T3 sequence: T1 sequence 1
Description: cell-based or functional assay.

The target of experiment [4] is T2, Recombinant human IL-18. As to the kind of experiment: solution equilibrium titration (SET), ECL detection.
Experiment [5] concerns the target T1, IL-18/IL-18BP complex. Description: ELISA, second set-up: unbiotinylated human IL-18/rhIL-18BP-Fc complex captured on Maxisorp plate through the Fc tag by goat anti-human IgG Fc, antibody titrated, AttoPhos fluorescence [B]. (In an ELISA, binding on a coated surface is turned into a signal by an enzyme label.)
In experiment [6] the target is T4, Recombinant cynomolgus IL-18 (cynomolgus monkey, UniProt Q14116 37-193 (human entry)).
T4 chain: T1 sequence 1 with V11I, S50N, T63A, K79R, F134Y, E141K
Description: cell-based or functional assay.

The target in experiment [7] is T4, Recombinant cynomolgus IL-18. Description: cell-based or functional assay.
Experiment [8] concerns the target T2, Recombinant human IL-18. Description: cell-based or functional assay. This is another data set of the same source.
The target in experiment [9] is T3, Native human IL-18. Description: cell-based or functional assay. This is another data set of the same source.
The target of experiment [10] is T4, Recombinant cynomolgus IL-18. As to the kind of experiment: solution equilibrium titration (SET), ECL detection; value in brackets = cynomolgus IL-18; bracketed value.
For experiment [11] the target is unchanged. As to the kind of experiment: ratio of SET KD values, cynomolgus against human IL-18.
Experiment [12] concerns the target T2, Recombinant human IL-18. Description: cell-based or functional assay. The source holds these as a separate data set.
For experiment [13], the target named is T3, Native human IL-18. Description: cell-based or functional assay. The source holds these as a separate data set.
For experiment [14], the target named is T2, Recombinant human IL-18. As to the kind of experiment: solution equilibrium titration (SET), ECL detection; human IL-18; unbracketed value, column Hu IL-18.

Changes are numbered by the printed parent chain. Like-named read-outs stand apart in the source and are kept apart here.

B1: MOR08776 (antibody, human IgG1, lambda, V domains shown)
VH: QVQLQESGPGLVKPGETLSLTCTVSGGSISTGSYYWNWIRQAPGKGLEWIGEINHMGITYYNPSLKGRVTISVDTSKNQFSLKLSSVTAEDTAVYYCARTTRYWMSHILAYGMDYWGQGTLVTVSS
VL: DIVLTQPPSVSGAPGQRVTISCSGSSSNIGNHYVSWYQQLPGTAPKLLIYANTKRPSGVPDRFSGSKSGTSASLAITGLQSEDEADYYCSSYDGSQSIVFGGGTKLTVLG
notes: also called MOR8776
By Kd is commonly meant the equilibrium constant for the complex coming apart. For the molecule B1, the binding result with IL-18/IL-18BP complex [1] is reported as “no binding (tested: about 800 nM)”. In the experiment with Recombinant human IL-18 [2], the “IC50, inhibition of IFN-γ release, KG-1 cells, Hu IL-18 (1 nM)” value (“IC50, inhibition of IFN-γ release … (1 nM)” below) was 18 nM and the “IC50, inhibition of IFN-γ release, PBMC, Hu IL-18 (recombinant)” value (from here on “IC50, inhibition … (recombinant)”) came to 50.8 nM. For the same molecule, the “IC50, inhibition of IFN-γ release, PBMC, Native IL-18 (LPS/IL-12)” value (shortened to “IC50, inhibition … (LPS/IL-12)”) with Native human IL-18 [3] worked out at 5.9 nM. In the experiment with Recombinant human IL-18 [4], the dissociation constant Kd turned out to be 0.038 nM.

B2: MOR09465 (antibody, human IgG1, lambda, L234A L235A, V domains shown)
VH: EVQLVQSGAEVKKPGSSVKVSCKASGGTFNSYAISWVRQAPGQGLEWMGNIIPHYGFAYYAQKFQGRVTITADESTSTAYMELSSLRSEDTAVYYCARAAYHPLVFDNWGQGTLVTVSS
VL: DIVLTQPPSVSGAPGQRVTISCSGSSSNIGNHYVNWYQQLPGTAPKLLIYRNNHRPSGVPDRFSGSKSGTSASLAITGLQSEDEADYYCQSWDYSGFSTVFGGGTKLTVLG
notes: also called MOR9465
On to B2, for which the binding result with IL-18/IL-18BP complex [5] was “no binding (tested: about 400 nM)”. The “IC50, inhibition of IFN-γ release, KG-1 cells, Cyno IL-18” value (from here on “IC50, inhibition … Cyno IL-18”) in experiment [6] amounted to 1.8 nM. In addition, in the experiment with Recombinant human IL-18 [2], the “IC50, inhibition of IFN-γ release … (1 nM)” value came out at 0.3 nM and the “IC50, inhibition … (recombinant)” value amounted to 0.6 nM. Moreover, in the experiment with Native human IL-18 [3], the “IC50, inhibition … (LPS/IL-12)” value was 0.89 nM. For the same molecule, in [7], the “IC50, inhibition of IFN-γ production, cynomolgus whole blood, recombinant cynomolgus IL-18 (7 nM)” value (shortened to “IC50, inhibition of IFN-γ production”) was 55 nM. Moreover, the Kd with Recombinant human IL-18 [4] was determined as 0.006 nM. The “IC50, inhibition of IFN-γ release, human whole blood, recombinant human IL-18 (7 nM)” value (from here on “IC50, inhibition of IFN-γ release … (7 nM)”) with Recombinant human IL-18 [8] is 4.2 nM. The “IC50, inhibition of IFN-γ release, human whole blood, LPS/IL-12 (native IL-18)” value (“IC50, inhibition … (native IL-18)” for short) in the experiment with Native human IL-18 [9] turned out to be 19.4 nM.

B3: MOR09464 (antibody, human IgG1, lambda, L234A L235A, V domains shown)
VH: B2 VH with H54M, Y55T, F57Q, A58T
VL: B2 VL
notes: also called MOR9464
B3: the binding result with IL-18/IL-18BP complex [5] is “no binding (tested: about 400 nM)”. Moreover, the “IC50, inhibition … Cyno IL-18” value in [6] was 8.3 nM. For the same molecule, in the experiment with Recombinant human IL-18 [2], the “IC50, inhibition of IFN-γ release … (1 nM)” value came to 0.8 nM and the “IC50, inhibition … (recombinant)” value worked out at 1.3 nM. Further, the “IC50, inhibition … (LPS/IL-12)” value with Native human IL-18 [3] stood at 0.2 nM. Also, the “IC50, inhibition of IFN-γ production” value in experiment [7] came to 51 nM. The Kd in the experiment with Recombinant human IL-18 [4] stood at 0.003 nM. Also, the “IC50, inhibition of IFN-γ release … (7 nM)” value with Recombinant human IL-18 [8] stood at 3.6 nM. For the same molecule, in the experiment with Native human IL-18 [9], the “IC50, inhibition … (native IL-18)” value came out at 9.8 nM.

B4: MOR09441 (antibody, human IgG1, lambda, L234A L235A, V domains shown)
VH: EVQLVQSGAEVKKPGSSVKVSCKASGGTFNSYAISWVRQAPGQGLEWMGWINPFYIGETFYAQKFQGRVTITADESTSTAYMELSSLRSEDTAVYYCARAAYHPLVFDNWGQGTLVTVSS
VL: B2 VL
notes: also called MOR9441
On to B4, for which the binding result in the experiment with IL-18/IL-18BP complex [5] is recorded as “no binding (tested: about 400 nM)”. For the same molecule, in experiment [6], the “IC50, inhibition … Cyno IL-18” value worked out at 16.4 nM. Besides, in the experiment with Recombinant human IL-18 [2], the “IC50, inhibition of IFN-γ release … (1 nM)” value came to 0.6 nM and the “IC50, inhibition … (recombinant)” value was 2.5 nM. In addition, the “IC50, inhibition … (LPS/IL-12)” value with Native human IL-18 [3] was 0.45 nM. Besides, the “IC50, inhibition of IFN-γ production” value in experiment [7] turned out to be 110 nM. Also, the Kd with Recombinant human IL-18 [4] turned out to be 0.001 nM. Further, in the experiment with Recombinant human IL-18 [8], the “IC50, inhibition of IFN-γ release … (7 nM)” value amounted to 8 nM. Besides, the “IC50, inhibition … (native IL-18)” value with Native human IL-18 [9] came out at 16.3 nM.

B5: MOR9464_N30K (antibody, human IgG1, lambda, L234A L235A, V domains shown)
VH: B2 VH with N30K, H54M, Y55T, F57Q, A58T
VL: B2 VL
notes: also called MOR09464_N30K
On to B5, for which the dissociation constant (Kd) amounted to 0.02 nM in [10] and 0.002 nM with Recombinant human IL-18 [14]. Besides, the “fold weaker than against human IL-18” value in experiment [11] was found to be 10 fold. The “IC50, inhibition of IFN-γ release … (1 nM)” value with Recombinant human IL-18 [12] and with Recombinant human IL-18 [2] was 0.36 nM in each case. For the same molecule, the “IC50, inhibition … (LPS/IL-12)” value in the experiment with Native human IL-18 [13] and with Native human IL-18 [3] was 0.2 nM in each case. The “IC50, inhibition … Cyno IL-18” value in [6] was 4.7 nM. The “IC50, inhibition of IFN-γ release … (7 nM)” value in the experiment with Recombinant human IL-18 [8] was 8.62 nM. In addition, the “IC50, inhibition … (native IL-18)” value with Native human IL-18 [9] was found to be 17.1 nM.

B6: MOR08775 (antibody, human IgG1, lambda, V domains shown)
VH: B2 VH with E1Q, N50G, H54I, F57T, Y59N
VL: B2 VL
notes: also called MOR8775
In the case of B6, in the experiment with IL-18/IL-18BP complex [1], the binding result was “no binding (tested: about 800 nM)”. Besides, the “IC50, inhibition … Cyno IL-18” value in [6] was found to be 22 nM. Further, in the experiment with Recombinant human IL-18 [2], the “IC50, inhibition of IFN-γ release … (1 nM)” value worked out at 68 nM and the “IC50, inhibition … (recombinant)” value was 9.2 nM. The “IC50, inhibition … (LPS/IL-12)” value with Native human IL-18 [3] was 0.7 nM. The dissociation constant (Kd) with Recombinant human IL-18 [4] was 0.065 nM.

B7: MOR09466 (antibody, human IgG1, lambda, L234A L235A, V domains shown)
VH: B2 VH with H54Y, Y55S
VL: B2 VL
notes: also called MOR9466
As to B7, in the experiment with IL-18/IL-18BP complex [5], the binding result is recorded as “no binding (tested: about 400 nM)”. For the same molecule, in experiment [6], the “IC50, inhibition … Cyno IL-18” value amounted to 5.6 nM. Moreover, in the experiment with Recombinant human IL-18 [2], the “IC50, inhibition of IFN-γ release … (1 nM)” value is 0.4 nM and the “IC50, inhibition … (recombinant)” value was 1.2 nM. Moreover, in the experiment with Native human IL-18 [3], the “IC50, inhibition … (LPS/IL-12)” value was 2.1 nM. For the same molecule, the “IC50, inhibition of IFN-γ production” value in [7] amounted to 179 nM. Further, in the experiment with Recombinant human IL-18 [4], the Kd was found to be 0.005 nM. Besides, the “IC50, inhibition of IFN-γ release … (7 nM)” value with Recombinant human IL-18 [8] came to 5.6 nM. The “IC50, inhibition … (native IL-18)” value with Native human IL-18 [9] stood at 18.5 nM.

Values taken from US20140112915A1 (Novartis, published 2014).
